This note sets out measurements from patent publication US20120093724.

For one series, the target named is semenogelin I (UniProt P04279).
Another series has as its target semenogelin II (UniProt Q02383).

semenogelin II, sequence (Q02383 24-582): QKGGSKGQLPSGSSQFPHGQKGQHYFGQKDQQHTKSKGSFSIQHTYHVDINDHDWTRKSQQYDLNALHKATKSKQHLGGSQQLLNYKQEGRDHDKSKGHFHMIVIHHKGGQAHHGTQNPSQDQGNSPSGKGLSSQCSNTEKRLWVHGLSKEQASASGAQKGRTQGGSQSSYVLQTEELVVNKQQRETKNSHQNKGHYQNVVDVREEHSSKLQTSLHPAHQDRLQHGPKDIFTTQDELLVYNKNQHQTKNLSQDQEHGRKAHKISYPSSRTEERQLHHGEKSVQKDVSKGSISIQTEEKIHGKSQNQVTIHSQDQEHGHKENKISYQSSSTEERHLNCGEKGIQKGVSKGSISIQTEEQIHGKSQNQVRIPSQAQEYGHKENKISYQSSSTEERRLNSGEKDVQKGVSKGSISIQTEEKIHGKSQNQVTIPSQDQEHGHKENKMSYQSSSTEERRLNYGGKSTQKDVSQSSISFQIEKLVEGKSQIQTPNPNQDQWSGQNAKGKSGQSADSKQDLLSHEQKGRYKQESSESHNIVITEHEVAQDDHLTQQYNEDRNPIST
semenogelin I, sequence (P04279 24-462): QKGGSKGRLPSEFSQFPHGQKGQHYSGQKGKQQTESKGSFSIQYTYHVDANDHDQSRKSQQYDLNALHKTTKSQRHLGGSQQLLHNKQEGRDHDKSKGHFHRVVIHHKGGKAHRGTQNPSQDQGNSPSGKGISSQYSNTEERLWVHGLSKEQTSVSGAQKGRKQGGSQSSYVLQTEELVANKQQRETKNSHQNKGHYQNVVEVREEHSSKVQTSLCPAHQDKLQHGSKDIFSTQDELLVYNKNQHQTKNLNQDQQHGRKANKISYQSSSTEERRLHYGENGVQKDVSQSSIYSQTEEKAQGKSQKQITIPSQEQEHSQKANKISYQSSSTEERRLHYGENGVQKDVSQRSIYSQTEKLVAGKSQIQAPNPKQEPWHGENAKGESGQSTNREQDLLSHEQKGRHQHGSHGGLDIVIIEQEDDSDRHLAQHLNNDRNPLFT

Regarding human glandular kallikrein 2, in the series with semenogelin I, the number of cleavage sites sequenced (cleavage sites) is 4 and the “proteolytic cleavage (fragments by HPLC)” value was “Cleavage of either Sg I or Sg II with hK2 results in generation of a multitude of peptides”. In addition, in the series with semenogelin II, the number of cleavage sites sequenced (cleavage sites) turned out to be 7 and the “proteolytic cleavage (fragments by HPLC)” value is “Cleavage of either Sg I or Sg II with hK2 results in generation of a multitude of peptides”.
